Results reported in article PMC9778525.

Tests used:
[1] = target: N-terminus His-tagged annexin V (human) (UniProt P08758); experiment: high-speed atomic force microscopy (HS-AFM); 1 uM annexin V added to supported lipid bilayers (DOPC:DOPS:biotinyl-DOPE = 7:2:1) on mica; 10 mM HEPES-NaOH pH 7.0, 2 mM CaCl2, 150 mM NaCl; trimers and 2D crystal lattice (p6) on the membrane
[2] = target: annexin V without any residual amino acids (human) (UniProt P08758); experiment: as above

Substance | stoichiometry N [1] | stoichiometry N [2]
N-terminus His-tagged annexin V (from UniProt P08758 1-320) (natural protein) | 3 | 
annexin V without any residual amino acids (from UniProt P08758 1-320) (natural protein) |  | 3
